Results from the supplement of paper PMC10567573.

B1: SPATS1 (parent)
chain: GRKKYDIDPRNGIPKLTPGDNPYM
B2: ZNF8 (parent)
chain: RTHTGEKPYTCSVCGKSFSRTTCL

Variants of: B1
Assay: protein stability index of a GFP-peptide fusion (GPS, HEK-293T) (PSI 1-6); higher = more stable
Conditions: c terminus: a fixed tail appended
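Further: lentivirally expressed fusions sorted by FACS into six bins by GFP to DsRed ratio, PSI derived from sequencing read proportions per bin multiplied by bin number.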

Protein stability index, by site and new letter:
G19: S 3.59 | L 3.44 | V 2.88 | R 3.35

Variants of: B2
Assay: as above
Conditions: c terminus: a fixed tail appended

Protein stability index: each site, then its substitutions
T4: H 2.99 | Y 2.27 | A 2.1 | K 3.02 | Q 2.31 | I 2.13 | W 1.83 | M 2.16 | G 2.44 | E 3.43 | N 3.12 | C 2.32 | S 2.77 | F 1.69 | V 1.93 | D 2.49 | L 2.18 | R 2.66 | P 2.22
Y9: P 2.4 | H 2.11 | A 2.3 | K 2.08 | D 2.78 | I 2.59 | N 2.51 | E 2.95 | L 2.39 | G 2.5 | C 3.77 | F 2.32 | M 2.23
E6: M 2.19 | Y 2.11 | K 2.53 | T 2.08 | F 2.11 | I 2.75 | G 2.26 | P 2.11 | H 2.48 | W 2.06 | D 2.9 | V 2.04 | A 2.31 | S 1.92 | L 2.1 | R 1.92 | N 1.96 | Q 2.06 | C 2.28
K7: A 2.35 | P 2.96 | Q 2.08 | N 2.42 | T 2.49 | H 2.93 | D 2.17 | R 2.49 | S 2.47 | Y 2.36 | W 2.31 | V 2.44 | F 2.5 | I 2.15 | C 2.72 | E 2.36 | G 3.25 | L 2.72 | M 2.29
P8: W 2.9 | E 2.95 | G 2.9 | V 2.59 | N 2.93 | Q 3.05 | Y 2.95 | M 2.62 | I 3.05 | S 2.17 | T 2.86 | A 3.27 | R 2.46 | F 2.25 | K 2.04 | L 3.12 | C 2.81 | H 2.63 | D 2.78
H3: Q 2.2 | I 2.21 | Y 2.27 | E 2.72 | T 2.44 | P 2.46 | G 2.86 | R 2.15 | K 2.05 | F 2.08 | N 2.72 | S 2.66 | C 2.77 | L 1.88 | M 2.37 | D 2.82 | A 1.86 | W 1.82 | V 2.82
T2: W 2.2 | C 3.48 | H 2.52 | F 2.69 | Y 2.07 | E 2.85 | V 2.55 | Q 2.66 | N 2.49 | A 2.32 | R 2.19 | K 2.76 | L 2.1 | D 2.93 | M 2.39 | G 2.52 | P 2.2 | I 1.86
G5: T 2.4 | H 2.25 | V 2.87 | S 3.15 | W 2.74 | D 2.62 | P 2.4 | N 2.66 | K 2.78 | E 3.25 | M 2.48 | Y 2.15 | R 2.5 | F 2.64 | A 2.3 | C 2.84 | L 2.29 | I 3.05 | Q 2.36
R1: T 3.04 | E 3.13 | N 2.6 | C 4.33 | L 1.94 | G 3 | P 2.64 | I 2.59 | Y 2.51 | F 2.22 | D 2.85 | K 2.24 | V 3.18 | H 2.85 | S 2.34 | Q 2.33 | A 2.43 | M 2.61
